Values of other authors as cited in publication PMC4317646.

Molecular target: ADP-G-actin (Saccharomyces cerevisiae) (UniProt P60010)

Chain of C-Srv2 C-terminal half (P17555 253-526): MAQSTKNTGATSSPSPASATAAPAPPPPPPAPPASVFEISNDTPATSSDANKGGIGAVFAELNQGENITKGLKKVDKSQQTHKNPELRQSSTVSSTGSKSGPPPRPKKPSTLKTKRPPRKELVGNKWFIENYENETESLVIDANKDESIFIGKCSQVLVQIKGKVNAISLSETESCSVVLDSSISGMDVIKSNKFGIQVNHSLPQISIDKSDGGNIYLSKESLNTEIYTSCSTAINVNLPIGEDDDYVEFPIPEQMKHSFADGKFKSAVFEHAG

## C-Srv2 C-terminal half (from UniProt P17555)
  Kd: 18 nM
